Measurements as given in the DeepSol protein solubility set.

assay: soluble on expression in E. coli; label from the status in PepcDB or PDB records

Q: With “MLASKMRWEIQRPDQDKVKSLTEQLHITPLVASLLVKRGFDTAESARLFLHTKDADFYDPFEMKGMKEAADRIKQAISQQEKIMIYGDYDADGVTSTSVMLHTLQKLSAQVDFYIPDRFKEGYGPNEQAFRSIKERGFSLIITVDTGIAAVHEAKVAKELGLDVIITDHHEPGPELPDVRAIVHPKQPGCTYPFKELAGVGVAFKLAHALLGELPDELLDLAAIGTIADLVPLHDENRLIATLGLERLRRTNRLGLKELIKLSGGDIGEANEETVGFQLAPRLNAVGRIEQADPAVHLLMSEDSFEAEELAAEIDQLNKERQKMVSKMTDEAIEMVEQQGLDQTAIVVAKAGWNPGVVGIVASKLVDRFYRPAIVLGIDEEKGIAKGSARSIRGFNLFESLSECRDILPHFGGHPMAAGMTLKAEDVPDLRSRLNEIADNTLTEEDFIPVQEVDLVCGVEDITVESIAEMNMLSPFGMLNPKPHVLVENAVLEDVRKIGANKTHVKMTIRNESSQLDCVGFNKGELQEGIVPGSRISIVGEMSINEWNNRKKPQLMIKDAAVSEWQLFDLRGKRTWEDTVSALPSAKRAIVSFKEDSTTLLQTEDLRREVHVISSKDQAKAFDLDGAYIVLLDPPPSLDMLARLLEGKAPERIYFIFLNHEDHFLSTFPARDHFKWYYAFLLKRGAFDVKKHGSELAKHKGWSVETINFMTKVFFDLGFVKIENGVLSVVSGAKKRDLTDSQTYQAKQQLMELDQKLNYSSAEELKEWLNKLMKQDSEAYESTRR” as the sequence, how does the “soluble on expression in E. coli” value read?
A: not soluble

Q: Which “soluble on expression in E. coli” value does the source give for “MLATPGRFFEKFQKMDKVYRRFYQHELAEYQFTPNEIAVILFLYNNAPDLDTATDIVRCKGISKGLVARSVDSLCREGYLTAVREPADRRIMHLKLSEKSRPITERIAVKQKELAGKIECGITPEELRITSATLDKLLINTEQLLKGKENHAE” here?
A: soluble

Q: For “MLDIKFLRTNFEEVKAKLQHRGEDLTDFGRFEELDTRRRELLVQTEELKSKRNEVSQQISVLKREKKDAEALILEMREVGEKVKDLDNELRTVEEDLERLMLSIPNIPHESAPVGETEDDNVVARTWGEVKEFAFEPKPHWDLATDLGILDFERAGKVTGSRFVFYKGAGARLERALISFMLDLHTDEHGYEEVLPPYMVNRASMTGTGQLPKFEEDAFRIESEDYFLIPTAEVPVTNMHRDEILNKEQLPIRYAAFSSCFRSEAGSAGRDTRGLIRQHQFNKVELVKFVKPEDSYEELEKLTNDAERVLQLLELPYRVMSMCTGDLGFTAAKKYDIEVWIPSYGTYREISSCSNFEAFQARRANIRFRREPNGKPEHVHTLNGSGLAIGRTVAAILENYQQEDGTIIIPEVLRPYMGGKTVIK”, which “soluble on expression in E. coli” value is on record?
A: soluble

Q: Which “soluble on expression in E. coli” value does the source give for “MLDMELESFLSMEKQGDISDAFLSAVKAEMQQMVLYAAGLAVRNIEETNRLRQKAKELYFYYLERYSPLAEMYKGSEMSLHNAGTATLRGHKNLAGGKRIDIGLWDGSKEFFHEYCYLPDDVQIRLFISKIQLLHFVVGAITTPQYVEKVALLGKVVGSSRYLELLRSFIDLNDPSGKNYSRGLFFYDHKFDKLEEVGKEVGENLPEVIKRFFPDKWVLVDVWATWCSPCKKEFGYNKQLHAFLEEKGIAMLYCSVDEPENSDNWRNNLSAFGLTGYHYYITSKAEKELLKIPDFRMLIPRYLLFDNKGKLVHANLPRPSSEKALYEEIEKLMQGN” here?
A: not soluble

Q: Which “soluble on expression in E. coli” value does the source give for “MLEEYRKHVAERAAEGIAPKPLDANQMAALVELLKNPPAGEEEFLLDLLTNRVPPGVDEAAYVKAGFLAAIAKGEAKSPLLTPEKAIELLGTMQGGYNIHPLIDALDDAKLAPIAAKALSHTLLMFDNFYDVEEKAKAGNEYAKQVMQSWADAEWFLNRPALAEKLTVTVFKVTGETNTDDLSPAPDAWSRPDIPLHALAMLKNAREGIEPDQPGVVGPIKQIEALQQKGFPLAYVGDVVGTGSSRKSATNSVLWFMGDDIPHVPNKRGGGLCLGGKIAPIFFNTMEDAGALPIEVDVSNLNMGDVIDVYPYKGEVRNHETGELLATFELKTDVLIDEVRAGGRIPLIIGRGLTTKAREALGLPHSDVFRQAKDVAESDRGFSLAQKMVGRACGVKGIRPGAYCEPKMTSVGSQDTTGPMTRDELKDLACLGFSADLVMQSFCHTAAYPKPVDVNTHHTLPDFIMNRGGVSLRPGDGVIHSWLNRMLLPDTVGTGGDSHTRFPIGISFPAGSGLVAFAAATGVMPLDMPESVLVRFKGKMQPGITLRDLVHAIPLYAIKQGLLTVEKKGKKNIFSGRILEIEGLPDLKVEQAFELTDASAERSAAGCTIKLNKEPIIEYLNSNIVLLKWMIAEGYGDRRTLERRIQGMEKWLANPELLEADADAEYAAVIDIDLADIKEPILCAPNDPDDARPLSAVQGEKIDEVFIGSCMTNIGHFRAAGKLLDAHKGQLPTRLWVAPPTRMDAAQLTEEGYYSVFGKSGARIEIPGCSLCMGNQARVADGATVVSTSTRNFPNRLGTGANVFLASAELAAVAALIGKLPTPEEYQTYVAQVDKTAVDTYRYLNFNQLSQYTEKADGVIFQTAV” here?
A: soluble

Q: With “MLEHLIKISRRNWSSLKVIILAGGRGKRITLFKPFLVVCGKPLISWAFDAVNKLSDKVYLGINQSHPLFTIFKHSIFKIFPTPDISYENDVKYVVESLGPPILVLPVDIAFINNNIINNLIERCAVDMCTLKSYGSYLGVTYWTGLNFSNYTDIEVKEKLYNINTWEDYIKANKECNILLEHHHHHH” as the sequence, how does the “soluble on expression in E. coli” value read?
A: soluble

Q: Which “soluble on expression in E. coli” value does the source give for “MLEILYQDEWLVAVNKPSGWLVHRSWLDRDEKVVVMQTVRDQIGQHVFTAHRLDRPTSGVLLMGLSSEAGRLLAQQFEQHQIQKRYHAIVRGWLMEEAVLDYPLVEELDKIADKFAREDKGPQPAVTHYRGLATVEMPVATGRYPTTRYGLVELEPKTGRKHQLRRHLAHLRHPIIGDSKHGDLRQNRSGAEHFGLQRLMLHASQLSLTHPFTGEPLTIHAGLDDTWMQALSQFGWRGLLPENERVEFSAPSGQDGEISSLEHHHHHH” here?
A: not soluble

Q: With “MLEKELSFADLSISLSELYEAMGYADAVPDEAVEKEVRGVLGRVEAVTSPRFCFFISGGELDESKDSLSVGDTCFSIGKIITRQLRGSESFAFFAATAGTGFERFQHTLQQEGDMVKVYIADAIGSVIAEKTADCMEIALDEYIRDRGWRHTNRFSPGYCGWHVSEQKKLFPLFPSAEPCGIRLTDSGLMLPIKSVSGVIGLGDGVRKLEYTCGLCTYDRCYRRKQRGLEHHHHHH” as the sequence, how does the “soluble on expression in E. coli” value read?
A: soluble

Q: For “MLEKNPTLEKLLKSLEDIQAIDIKIIDVHKQTTITDFMVVTSGRSSRHVKSIAQKVLEDMKVAGLPCLSSTGIEHGDWALIDFGDIILHVMQPEFRHFYNLEGLWEEHPGNSLEHHHHHH”, which “soluble on expression in E. coli” value is on record?
A: not soluble

Q: For “MLEQIQQALAGDQEQFQALYGQYQPVIYKCMKKYYLKDYDTEDWLQEGRIVFFRTLERFDSEKQASLGKFFKRNFENHVHSLIRHQCAYKRRTDTLSISLEQRLESAGEELVDYLGTAATDPLGQLMIQEKLAAFPTRLSSLEQQILNAYLKGYTLEEIAKVRGGTFSAVRSAYDRAKAKMKYTLENE”, which “soluble on expression in E. coli” value is on record?
A: not soluble

Q: For “MLEWRGDKYVNGYYPVSSSAPDLLLECISNESKKYLPGELIAVECKWRSTVNFFIPKSDAEKYEKYFRTNKTRYRVKHLFYLFGFGWSDNAPESVYIIPSTALYEYDENTFEITFPNGELIKDKKIRMEDYKMKFKNLIYTVPENRKHLSYQTKSFDTKKKDEPMQR”, which “soluble on expression in E. coli” value is on record?
A: not soluble

Q: For “MLFLDKNLELNDTELDIYNYIVANLEKVVYMRIRDLATEAHVSTTTILRFCRKFGCNGFSEFRVKLQLYLEEQKLAQIDMADETTYIDFLKRTAQPEFKAQIQNAVEILRDRELVLFAGVGSSGVIAEYGAIYFSSLFTLALHIEDPLNHPFYHLSSKLSDKICMIAISVEGENEDIIRYIHQLKAQNCKVISITNSAKSTIARLSDANIAYYINKEMYQEANITSQLPALYTIENIAREIRTQIDKEKM”, which “soluble on expression in E. coli” value is on record?
A: not soluble

Q: Which “soluble on expression in E. coli” value does the source give for “MLGAIIGDLVAWTWERDQSLFYQRLIAPKANISEVGLAVLGVTEPMLRGSSEVEWESLYLHIREIIQRDRITDISPDFNDWTEAGHQAVIPKEVKSVMHLAVSIVGGWCDAPLETTLAYSRRFHGGKEEYYLTQIAEIIYRLRQGATKQEAMEDIHYIKNWKPQGKVSLLGYAHHAWQCFLQSWDFTSALHNAMRCSYGDKHLLGALTGAIAEAMYSCEYGFIKEKYGKGSDTQFMLSLPKELSGLYRVELGLIESNKELLRTFFPKNRALTNVEVWQWFDLPNIVAHKPLSEREYQRIRLSHDTGWDARYGIYWDDGWYYVYCSGFLLNRFRVEEMQDHTYRITRIQYCTQHEEGKAYNALIKALSLDGLDMSAYSQYKD” here?
A: not soluble

Q: With “MLGGDWTDGTMTDFKWRHFQGDVILWAVRWYCRYPISYRDLEEMLAERGISVDHTTIYRWVQCYAPEMEKRLRWFWRRGFDPSWRLDETYVKVRGKWTYLYRAVDKRGDTIDFYLSPTRSAKAAKRFLGKALRGLKHWEKPATLNTDKAPSYGAAITELKREGKLDRETAHRQVKYLNNVVEADHGKLKILIKPVRGFKSIPTAYATIKGFEVMRALRKGQARPWCLQPGIRGEVRLVERAFGIGPSALTEAMGMLNHHFAAAA” as the sequence, how does the “soluble on expression in E. coli” value read?
A: not soluble

Q: For “MLGRGEGMRLEEARIAVDEALSAYRRCVEAEVEEYGPEYERVTFMEYEAPAPDPCAEAFLRLVEAVRAYEAAGGSREDLDLGRERKRVYEALDKG”, which “soluble on expression in E. coli” value is on record?
A: soluble

Q: With “MLHFIDSSESEDDLDELPRHLPPVIRRLAPLRHATSQYNLRSTGSTSSDSSTASENDKCSDFSSLKSRRASCIELNKEDEFKVMAADKLLMAMENMKHATSSQAIRWRTTSTESLPGIIKSNRRHSKGPLELIQGLMAKKAAVGRPAKFKNLGVVGPPTLISSTVSLHEISGFVRRDRFWGAETESLFSQFEV” as the sequence, how does the “soluble on expression in E. coli” value read?
A: not soluble

Q: Which “soluble on expression in E. coli” value does the source give for “MLIDKTIILSVAFFTSSVFGQTSDKDFLKKPHVLPSAEAAYHAVYHELDSVKSGNRDEKVFGQLYVALIEDQFTFGGDLSTWPDSAFQKGDRGCKPFMAANLHNLCNNEYFLVHQDMIKLVKTVFERKNQADPSFDTICLANNGFVVSDDPENHLVYRYKHRIPMTYKATSNDQKCFGTYDTRTDTFTCMRYDASTKKMSPFELQNFLWKENTGTFHLGNGNAEVFCKKPFYTNK” here?
A: not soluble

Q: With “MLIHYIDIAKRNFVIAVSSLSKTKTETNNPKGIAHTIEYLKKHKVALVVTESTGGLEIPAAKAIHRAGIAVIIANPRQTHQFAQSQSLTKTDAKDAKMPAFFAQMKAQKEDWQTMPYHPPTEAEEVLEALVNRRNQSADMRTAEKNRLHQVHETQVGSVKQLIAHFDRLIDESDKQIDDHTHTHFDGKAQVAEQIKGIGSITTATLMAMLPELGRLSHKRIASLVGIAPHPRKSGEAKFKSRCFGGRSAVLKALYMATVAATRFEPLIRDFHQRPLSEGKPYKVAVTACMRKLLETFAKFLSLTTTEIPTQVFGCFRPKYRLILPKHPLNPPRTPDNQASGLPFRRQRAHLACWRLSTGSNTSPSDGFAHSL” as the sequence, how does the “soluble on expression in E. coli” value read?
A: not soluble

Q: With “MLILGLVISCGGSKDITLPNKNVKIEGDVLTFKGKPFTGNIKMNLADKMDGYAGAMSFKDGHLDGLTDLKNDKENQQVKFTVVDGKFDGELIMKDAKQRTDIVLDIKNGAIVKYLADVQGAYKYDLSFVDNLANGTMEAQGQKFEFKDGIAKGPQGQELKLTLDPESGDLTMEAMVNGKVAGKQTIPNVLTPQYLETFIFRAVTMTNR” as the sequence, how does the “soluble on expression in E. coli” value read?
A: not soluble

Q: For “MLILVSPAKTLDFEQPPLTQIHTRPDFLAQSQELIQVCQQLTPSDIATLMKVSDSIAGLNAARFGEWKPDYSIDNAKQAIFAFRGDVYTGFDADTLTAAQLERTQSQLRILSGLYGLLRPLDLILPYRLEMGTALTNQKGKNLYEFWGNTLTDAVNSAVAAQGDGIIINLASNEYFKAIKPKFLNGQLITPVFKDFKNGQYKVISFFAKRARGMMARYIIDQQVSSIDGLKAFEVDGYYYSEELSKPNEPTFLREAQ”, which “soluble on expression in E. coli” value is on record?
A: soluble

Q: Which “soluble on expression in E. coli” value does the source give for “MLIPAQENNVSLTATPSRIGQIMKYGFPGLDHVRSHSDYVLSYDRRNRVPHWVFEHLTAESVAKNDAVDRSKCDFKQDESIHPFFRSQNTDYRRSGYDRGHMAAAGNHRLHQKHCDETFYLSNMAPQVGQGFNRDAWNTLEAHVRRLTKTYSNVYVCTGPLYLPHKEDDGKSYVKYEVIGANTVAVPTHFYKVIVGESADHKLHMESYVMPNQVISNDTPISVFQVPPESVERSAGLLFFDQINRKQLTTINGKKVAAALEHHHHHH” here?
A: soluble
